Reference: paper PMC11951571, “Mechanism of non-coding RNA regulation of DNMT3A”

Tests used:
DNMT3A_CD R736A = DNMT3A_CD R736A (human, UniProt Q9Y6K1 634-912, R736A); experiment: fluorescence anisotropy; 1 uM protein pre-bound to 10 nM FAM-GCbox30; 50 uM sinefungin; 50 mM KH2PO4/K2HPO4 pH 7.8, 1 mM EDTA, 1 mM DTT, 0.2 mg/ml BSA, 20 mM NaCl, 50 uM sinefungin (printed 'μm'), room temperature, 5 min; conditions: protein: recombinant; tags: His (pET28a, nickel column); chain copies: 4; 25 nt
DNMT3A_CD R729A = DNMT3A_CD R729A (human, UniProt Q9Y6K1 634-912, R729A); experiment: as above; conditions: protein: recombinant; tags: His (pET28a, nickel column); chain copies: 2; 25 nt
DNMT3A_CD R771A;DNMT3L = DNMT3A_CD R771A;DNMT3L (human;human, UniProt Q9Y6K1;Q9UJW3 634-912;1-386, R771A|); experiment: fluorescence anisotropy; heterotetramer pre-bound to 10 nM FAM-GCbox30; 50 uM sinefungin; 50 mM KH2PO4/K2HPO4 pH 7.8, 1 mM EDTA, 1 mM DTT, 0.2 mg/ml BSA, 20 mM NaCl, 50 uM sinefungin (printed 'μm'), room temperature, 5 min; conditions: protein: recombinant;recombinant; tags: His (pET28a, nickel column);; chain copies: 2;2; 25 nt
DNMT3A_FL WT [1] = target: T1, DNMT3A_FL WT (human, UniProt Q9Y6K1 1-912); experiment: fluorescence anisotropy; 1 uM protein in complex with 10 nM FAM-H3K4me0 peptide (1-21); 50 uM sinefungin; 50 mM KH2PO4/K2HPO4 pH 7.8, 1 mM EDTA, 1 mM DTT, 0.2 mg/ml BSA, 20 mM NaCl, 50 uM sinefungin (printed 'μm'), room temperature, 5 min
DNMT3A_CD WT = DNMT3A_CD WT (human, UniProt Q9Y6K1 634-912); experiment: fluorescence anisotropy; 1 uM protein pre-bound to 10 nM FAM-GCbox30; 50 uM sinefungin; anisotropy rises on RNA addition; 50 mM KH2PO4/K2HPO4 pH 7.8, 1 mM EDTA, 1 mM DTT, 0.2 mg/ml BSA, 20 mM NaCl, 50 uM sinefungin (printed 'μm'), room temperature, 5 min; conditions: protein: recombinant; tags: His (pET28a, nickel column); chain copies: 4; 25 nt
DNMT3A_FL WT [2] = target: T1, DNMT3A_FL WT; experiment: fluorescence anisotropy; 1 uM protein in complex with 10 nM FAM-H3K4me0 peptide (1-21); 50 uM sinefungin; no anisotropy change; 50 mM KH2PO4/K2HPO4 pH 7.8, 1 mM EDTA, 1 mM DTT, 0.2 mg/ml BSA, 20 mM NaCl, 50 uM sinefungin (printed 'μm'), room temperature, 5 min

T1 sequence (Q9Y6K1 whole entry): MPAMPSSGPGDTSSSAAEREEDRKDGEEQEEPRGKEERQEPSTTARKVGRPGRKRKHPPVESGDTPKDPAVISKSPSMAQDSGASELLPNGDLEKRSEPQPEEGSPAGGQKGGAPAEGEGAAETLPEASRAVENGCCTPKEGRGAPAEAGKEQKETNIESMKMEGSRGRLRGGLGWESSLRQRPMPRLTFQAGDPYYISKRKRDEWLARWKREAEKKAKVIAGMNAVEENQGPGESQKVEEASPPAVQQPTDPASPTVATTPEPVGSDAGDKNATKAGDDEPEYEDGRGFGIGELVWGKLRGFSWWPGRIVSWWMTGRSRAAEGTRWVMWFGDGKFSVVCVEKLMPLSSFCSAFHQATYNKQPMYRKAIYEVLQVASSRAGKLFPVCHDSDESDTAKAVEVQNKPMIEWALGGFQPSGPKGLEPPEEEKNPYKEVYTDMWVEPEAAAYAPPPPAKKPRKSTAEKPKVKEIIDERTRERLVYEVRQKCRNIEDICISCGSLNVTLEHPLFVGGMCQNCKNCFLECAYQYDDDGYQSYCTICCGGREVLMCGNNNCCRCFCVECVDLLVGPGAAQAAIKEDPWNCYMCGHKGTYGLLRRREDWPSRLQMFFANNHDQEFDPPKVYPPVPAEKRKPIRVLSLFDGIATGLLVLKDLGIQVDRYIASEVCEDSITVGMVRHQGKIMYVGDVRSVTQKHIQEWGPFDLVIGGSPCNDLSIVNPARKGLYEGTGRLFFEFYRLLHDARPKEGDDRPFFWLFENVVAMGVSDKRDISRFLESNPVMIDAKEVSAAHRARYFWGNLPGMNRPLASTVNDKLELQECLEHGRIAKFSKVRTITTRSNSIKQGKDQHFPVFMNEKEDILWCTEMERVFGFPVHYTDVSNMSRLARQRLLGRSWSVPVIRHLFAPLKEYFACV
Sequence of DNMT3A_CD R729A (Q9Y6K1 634-912 R729A): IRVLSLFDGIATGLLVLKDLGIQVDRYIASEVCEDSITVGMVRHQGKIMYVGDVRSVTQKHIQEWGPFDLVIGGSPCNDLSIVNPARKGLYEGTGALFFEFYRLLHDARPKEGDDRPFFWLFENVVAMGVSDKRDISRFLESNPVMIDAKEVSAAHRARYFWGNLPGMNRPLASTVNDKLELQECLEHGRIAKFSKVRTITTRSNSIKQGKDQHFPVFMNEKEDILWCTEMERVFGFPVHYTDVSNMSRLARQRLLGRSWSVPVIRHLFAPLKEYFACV
Sequence of DNMT3A_CD R771A;DNMT3L (Q9Y6K1 634-912 R771A, chain 1 of 2): as the sequence (Q9Y6K1 634-912 R729A) above, with A96R, R138A counted along it
Sequence of DNMT3A_CD R771A;DNMT3L (Q9UJW3 whole entry, chain 2 of 2): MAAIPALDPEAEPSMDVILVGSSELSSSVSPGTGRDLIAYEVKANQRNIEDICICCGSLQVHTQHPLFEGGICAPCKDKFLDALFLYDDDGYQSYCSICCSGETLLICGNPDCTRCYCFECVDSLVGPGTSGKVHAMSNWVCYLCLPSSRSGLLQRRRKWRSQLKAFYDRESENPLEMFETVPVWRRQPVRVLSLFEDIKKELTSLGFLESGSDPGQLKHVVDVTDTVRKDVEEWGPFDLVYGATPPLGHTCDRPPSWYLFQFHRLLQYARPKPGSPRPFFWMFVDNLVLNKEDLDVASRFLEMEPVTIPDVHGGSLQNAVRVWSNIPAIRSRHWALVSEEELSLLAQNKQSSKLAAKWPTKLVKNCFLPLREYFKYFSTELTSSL
Sequence of DNMT3A_CD R736A (Q9Y6K1 634-912 R736A): as the sequence (Q9Y6K1 634-912 R729A) above, with A96R, R103A counted along it
Sequence of DNMT3A_CD WT (Q9Y6K1 634-912): as the sequence (Q9Y6K1 634-912 R729A) above, with A96R counted along it

Binder | binding result (DNMT3A_CD R736A) | binding result (DNMT3A_CD R729A) | binding result (DNMT3A_CD R771A;DNMT3L) | binding result (DNMT3A_FL WT [1]) | binding result (DNMT3A_CD WT) | binding result (DNMT3A_FL WT [2])
GGGGACACGCCCUCUGUUCCCUUAU (ssRNA) [Fos-1 ecRNA] | binds | binds | binds | binds | binds | –
CGACCGCCUACUGAAAGAGGGC (ssRNA) [non-specific RNA] | – | – | – | – | – | no binding
